Consider 125 sequences from the supplement of paper PMC9112550, “Optimization of the antimicrobial peptide Bac7 by deep mutational scanning” (BMC Biology, 2022).
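Further: peptides expressed intracellularly from a pBAD plasmid library in pooled LB shake-flask culture, induced with 0.3% L-arabinose, DNA abundance read by NGS, three biological replicates, DESeq2 with apeglm shrinkage.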

The data set concerns Escherichia coli TOP10. Briefly: shrunken log2 fold change of peptide-encoding DNA abundance (4.5 h post-induction vs induction); higher = less antimicrobial activity (less host growth inhibition). The conditions noted are these: time post-induction: 4.5 h; library: site-saturation at positions 5, 18, 19, 20.
In the case of RRIRDRPPRLPRPRPRPQFHPRP, the “shrunken log2 fold change” value is -0.438.
The figure for RRIRWRPPRLPRPRPRPRIRPRP is 0.0716; for RRIRLRPPRLPRPRPRPERDPRP it is -0.189.
The figure for RRIRCRPPRLPRPRPRPACEPRP is 0.112.
RRIRDRPPRLPRPRPRPDPNPRP: the “shrunken log2 fold change” value stood at 0.00812.
The figure for RRIRWRPPRLPRPRPRPGYMPRP is -0.288; for RRIRSRPPRLPRPRPRPTIRPRP it is 0.0218; for RRIRGRPPRLPRPRPRPTRTPRP it is 1.32.
The result for RRIRWRPPRLPRPRPRPDYGPRP reads -0.202; that for RRIRVRPPRLPRPRPRPFKKPRP, -0.115; that for RRIRHRPPRLPRPRPRPGKPPRP, -0.00366.
The result for RRIRTRPPRLPRPRPRPKRHPRP reads 0.222; that for RRIRMRPPRLPRPRPRPCIFPRP, 0.0107; that for RRIRFRPPRLPRPRPRPQCQPRP, -0.0517.
With RRIRCRPPRLPRPRPRPQEIPRP, the “shrunken log2 fold change” value was -0.0405.
The figure for RRIRERPPRLPRPRPRPWFPPRP is -0.206; for RRIRGRPPRLPRPRPRPLFWPRP it is 0.544.
The result for RRIRRRPPRLPRPRPRPIWWPRP reads 0.58; that for RRIRTRPPRLPRPRPRPKRQPRP, 0.562; that for RRIRMRPPRLPRPRPRPVETPRP, -0.00114.
The result for RRIRFRPPRLPRPRPRPFAQPRP reads -0.263; that for RRIRMRPPRLPRPRPRPKDWPRP, 1.43; that for RRIRPRPPRLPRPRPRPSILPRP, -0.0331.
RRIRFRPPRLPRPRPRPYRIPRP: the “shrunken log2 fold change” value was -0.34.
Turning to RRIRARPPRLPRPRPRPQCQPRP, the “shrunken log2 fold change” value worked out at 0.457.
The result for RRIRYRPPRLPRPRPRPASHPRP reads -1.
The figure for RRIRTRPPRLPRPRPRPFCKPRP is -0.132; for RRIRYRPPRLPRPRPRPVARPRP it is -0.206; for RRIRYRPPRLPRPRPRPHGFPRP it is 0.0238.
The result for RRIRARPPRLPRPRPRPHFDPRP reads 0.22; that for RRIRLRPPRLPRPRPRPKMNPRP, -0.37; that for RRIRHRPPRLPRPRPRPLYKPRP, -0.272.
Turning to RRIRYRPPRLPRPRPRPFMQPRP, the “shrunken log2 fold change” value was -0.403.
On to RRIRYRPPRLPRPRPRPNENPRP, for which the “shrunken log2 fold change” value is -0.744.
The figure for RRIRYRPPRLPRPRPRPKDCPRP is -0.494; for RRIRYRPPRLPRPRPRPDWNPRP it is -0.428; for RRIRARPPRLPRPRPRPDQTPRP it is -0.0212.
The figure for RRIRYRPPRLPRPRPRPTMIPRP is -0.455; for RRIRSRPPRLPRPRPRPVRNPRP it is 0.0299; for RRIRYRPPRLPRPRPRPSDHPRP it is -0.42.
On to RRIRERPPRLPRPRPRPADVPRP, for which the “shrunken log2 fold change” value was 0.00489.
The figure for RRIRDRPPRLPRPRPRPSFFPRP is -0.168; for RRIRTRPPRLPRPRPRPQGPPRP it is 0.0175; for RRIRQRPPRLPRPRPRPEYRPRP it is 0.0706.
The figure for RRIRMRPPRLPRPRPRPNHNPRP is -0.687; for RRIRLRPPRLPRPRPRPCGRPRP it is 0.147.
The figure for RRIRRRPPRLPRPRPRPRFTPRP is 0.264; for RRIRRRPPRLPRPRPRPQCKPRP it is -0.268.
With RRIRARPPRLPRPRPRPIEGPRP, the “shrunken log2 fold change” value turned out to be 0.504.
On to RRIRTRPPRLPRPRPRPVKKPRP, for which the “shrunken log2 fold change” value came to 0.0316.
In the case of RRIRKRPPRLPRPRPRPLREPRP, the “shrunken log2 fold change” value is 0.718.
The figure for RRIRPRPPRLPRPRPRPCSYPRP is -0.858; for RRIRVRPPRLPRPRPRPPVFPRP it is 0.00719; for RRIRTRPPRLPRPRPRPREQPRP it is 0.198.
The figure for RRIRTRPPRLPRPRPRPWGTPRP is -0.11; for RRIRMRPPRLPRPRPRPPNRPRP it is 1.08; for RRIRCRPPRLPRPRPRPQRQPRP it is 0.0683.
The figure for RRIRFRPPRLPRPRPRPCPDPRP is -0.45; for RRIRRRPPRLPRPRPRPSRCPRP it is -0.0309; for RRIRSRPPRLPRPRPRPELSPRP it is 0.963.
As for RRIRHRPPRLPRPRPRPDRYPRP, the “shrunken log2 fold change” value was -0.236.
The figure for RRIRERPPRLPRPRPRPKMQPRP is -0.0537; for RRIRVRPPRLPRPRPRPYTYPRP it is 0.128; for RRIRFRPPRLPRPRPRPRYYPRP it is -0.617.
The figure for RRIRKRPPRLPRPRPRPSCAPRP is 0.523; for RRIRFRPPRLPRPRPRPIYHPRP it is -0.701.
The result for RRIRYRPPRLPRPRPRPLGNPRP reads 0.0523; that for RRIRQRPPRLPRPRPRPKDVPRP, 0.00879.
For RRIRSRPPRLPRPRPRPATCPRP, the “shrunken log2 fold change” value is -0.154.
The result for RRIRHRPPRLPRPRPRPGLNPRP reads -0.0123; that for RRIRNRPPRLPRPRPRPVSTPRP, -0.272.
The result for RRIRKRPPRLPRPRPRPFKVPRP reads -0.0542; that for RRIRCRPPRLPRPRPRPLVRPRP, 0.0749; that for RRIRIRPPRLPRPRPRPHKQPRP, -0.0164.
For the sequence RRIRVRPPRLPRPRPRPQMPPRP, the “shrunken log2 fold change” value was found to be 0.204.
Consider RRIRFRPPRLPRPRPRPVYTPRP, for which the “shrunken log2 fold change” value was -1.09.
In the case of RRIRTRPPRLPRPRPRPEHGPRP, the “shrunken log2 fold change” value worked out at 0.0391.
The figure for RRIRCRPPRLPRPRPRPANHPRP is -0.282; for RRIRDRPPRLPRPRPRPKMHPRP it is 0.159.
Turning to RRIRPRPPRLPRPRPRPQFMPRP, the “shrunken log2 fold change” value is -0.259.
The result for RRIRSRPPRLPRPRPRPHQGPRP reads 0.0275; that for RRIRYRPPRLPRPRPRPLYKPRP, -0.229; that for RRIRLRPPRLPRPRPRPTKIPRP, 0.0747.
The figure for RRIRQRPPRLPRPRPRPIMDPRP is -0.179; for RRIRIRPPRLPRPRPRPKMQPRP it is -0.293.
The result for RRIRFRPPRLPRPRPRPNMSPRP reads -0.54; that for RRIRHRPPRLPRPRPRPWNWPRP, -0.0135.
Consider RRIRHRPPRLPRPRPRPMHNPRP, for which the “shrunken log2 fold change” value is 0.708.
The result for RRIRGRPPRLPRPRPRPFRMPRP reads 0.00538; that for RRIRQRPPRLPRPRPRPHCIPRP, 0.0493; that for RRIRCRPPRLPRPRPRPTRDPRP, 0.104.
The figure for RRIRGRPPRLPRPRPRPVMPPRP is 0.16; for RRIRTRPPRLPRPRPRPSEFPRP it is -0.369; for RRIRCRPPRLPRPRPRPHDGPRP it is 0.0999.
The figure for RRIRIRPPRLPRPRPRPWLDPRP is -0.353; for RRIRTRPPRLPRPRPRPAQEPRP it is -0.00523.
RRIRNRPPRLPRPRPRPVRMPRP: the “shrunken log2 fold change” value is -0.132.
The result for RRIRPRPPRLPRPRPRPLCSPRP reads -0.431; that for RRIRLRPPRLPRPRPRPHWCPRP, -0.0751.
The figure for RRIRTRPPRLPRPRPRPCWCPRP is -0.0474; for RRIRLRPPRLPRPRPRPPEAPRP it is 0.255.
The result for RRIRKRPPRLPRPRPRPRCSPRP reads 0.305; that for RRIRWRPPRLPRPRPRPQEAPRP, -0.00482.
As to RRIRIRPPRLPRPRPRPMMCPRP, the “shrunken log2 fold change” value came out at 0.0233.
The result for RRIRARPPRLPRPRPRPRYPPRP reads 0.0172; that for RRIRDRPPRLPRPRPRPYWCPRP, 0.0158; that for RRIRCRPPRLPRPRPRPRHRPRP, -0.466.
The result for RRIRGRPPRLPRPRPRPIIDPRP reads 0.859; that for RRIRYRPPRLPRPRPRPLYDPRP, -0.51; that for RRIRSRPPRLPRPRPRPSNCPRP, -0.525.
The figure for RRIRIRPPRLPRPRPRPTTEPRP is 0.086; for RRIRLRPPRLPRPRPRPEMHPRP it is -0.132.
Regarding RRIRKRPPRLPRPRPRPIMKPRP, the “shrunken log2 fold change” value came to 0.16.
The result for RRIRHRPPRLPRPRPRPLPAPRP reads 0.192; that for RRIRQRPPRLPRPRPRPNSCPRP, 0.0314.
The figure for RRIRNRPPRLPRPRPRPCKHPRP is -0.344; for RRIRFRPPRLPRPRPRPIMSPRP it is -0.0555.
The result for RRIRWRPPRLPRPRPRPQKQPRP reads 0.184; that for RRIRFRPPRLPRPRPRPGDIPRP, 0.0113; that for RRIRSRPPRLPRPRPRPYPYPRP, -0.646.
Take RRIRNRPPRLPRPRPRPMDYPRP: the “shrunken log2 fold change” value came to 0.0678.
The result for RRIRSRPPRLPRPRPRPWNWPRP reads -0.328; that for RRIRFRPPRLPRPRPRPFERPRP, -0.0442; that for RRIRWRPPRLPRPRPRPADPPRP, 0.372.
As for RRIRTRPPRLPRPRPRPVIMPRP, the “shrunken log2 fold change” value is -0.181.
